Changes are numbered by the printed parent chain.
T1: cytoplasmic domain-lacking human NR10 on CHO cells (hNR10-expressing CHO cells) (human, UniProt Q8NI17 20-553)
T1 construct: also called NR10-expressing cells
T1 sequence: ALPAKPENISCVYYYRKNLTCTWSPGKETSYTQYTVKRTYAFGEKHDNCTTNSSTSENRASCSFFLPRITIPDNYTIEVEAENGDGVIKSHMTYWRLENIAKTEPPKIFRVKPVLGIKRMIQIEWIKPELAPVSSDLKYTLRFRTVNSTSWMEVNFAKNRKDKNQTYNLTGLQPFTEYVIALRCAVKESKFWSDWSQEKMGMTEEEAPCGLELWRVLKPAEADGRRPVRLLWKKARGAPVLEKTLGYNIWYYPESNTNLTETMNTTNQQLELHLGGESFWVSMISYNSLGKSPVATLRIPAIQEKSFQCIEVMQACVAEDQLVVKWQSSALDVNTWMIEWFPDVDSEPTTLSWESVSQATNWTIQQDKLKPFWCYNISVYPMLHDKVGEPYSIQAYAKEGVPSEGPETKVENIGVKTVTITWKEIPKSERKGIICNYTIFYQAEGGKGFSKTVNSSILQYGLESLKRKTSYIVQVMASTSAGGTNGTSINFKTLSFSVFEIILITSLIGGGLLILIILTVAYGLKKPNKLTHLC

T2: rhNR10 (recombinant human NR10) (human, UniProt Q8NI17 20-519, limits assumed)
T2 construct: also called IL-31 receptor; IL31RA
T2 sequence: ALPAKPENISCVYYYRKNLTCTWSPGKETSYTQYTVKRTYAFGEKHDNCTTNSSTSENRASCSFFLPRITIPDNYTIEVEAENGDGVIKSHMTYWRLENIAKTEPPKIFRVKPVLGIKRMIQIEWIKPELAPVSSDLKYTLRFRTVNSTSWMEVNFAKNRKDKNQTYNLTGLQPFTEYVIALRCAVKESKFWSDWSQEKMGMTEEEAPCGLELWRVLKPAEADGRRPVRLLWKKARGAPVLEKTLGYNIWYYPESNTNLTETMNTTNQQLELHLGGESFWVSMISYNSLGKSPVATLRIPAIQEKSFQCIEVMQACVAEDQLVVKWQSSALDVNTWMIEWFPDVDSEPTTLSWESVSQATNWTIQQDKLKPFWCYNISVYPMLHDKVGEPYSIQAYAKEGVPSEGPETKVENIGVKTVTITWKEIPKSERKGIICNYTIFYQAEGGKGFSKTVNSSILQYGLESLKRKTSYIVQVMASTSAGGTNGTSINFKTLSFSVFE

B1: Hp1 variant of H0L0 (antibody, V domains shown)
VH: QVQLVQSGAEVKKPGASVKVSCKASGYTFTGYIMNWVRQAPGQGLEWMGLINPYNGGTSYNQKFQGRVTITADESTSTAYMELSSLRSEDTAVYYCARDGYDDGPYTMDYWGQGTLVTVSS
VL: DIQMTQSPSSLSASVGDRVTITCRTSENIYSFLAWYQQKPGKAPKLLIYNAKTLAKGVPSRFSGSGSGTDFTLTISSLQPEDFATYYCQHHYESPLTFGGGTKVEIK
B2: Lp5 variant of H0L0 (antibody, V domains shown)
VH: B1 VH with Q65K
VL: DIQMTQSPSSLSASVGDRVTITCRTSENIYSFLAWYQQKPGKAPKLLIYNAKTLAQGVPSRFSGSGSGTDFTLTISSLQPEDFATYYCQHHYESPLTFGGGTKVEIKR
notes: copies: 2 + 2
B3: Lp6 variant of H0L0 (antibody, V domains shown)
VH: B1 VH with Q65K
VL: B2 VL with Q56D
notes: copies: 2 + 2
B4: H0La130 (H0-SKSC / La130) (antibody, V domains shown)
VH: B1 VH with Q65K
VL: B2 VL with S31R, L33V, Q56K
B5: Ha219L0 (Ha219-SKSC / L0) (antibody, V domains shown)
VH: B1 VH with Q62P, Q65K
VL: B2 VL with Q56K
B6: H0La326 (H0-SKSC / La326) (antibody, name in Kabat numbering, V domains shown)
VH: B1 VH with Q65K
VL: B2 VL with Q56K, T97F
B7: H0La328 (H0-SKSC / La328) (antibody, V domains shown)
VH: B1 VH with Q65K
VL: B2 VL with Q56K, S94D
B8: H0La134 (H0-SKSC / La134) (antibody, V domains shown)
VH: B1 VH with Q65K
VL: B2 VL with S31R, Q56K
B9: Ha204L0 (Ha204-SKSC / L0) (antibody, V domains shown)
VH: B1 VH with S59D, Q65K
VL: B2 VL with Q56K
B10: Ha103L0 (Ha103-SKSC / L0) (antibody, V domains shown)
VH: B1 VH with M34I, Q65K
VL: B2 VL with Q56K
B11: H0La303 (H0-SKSC / La303) (antibody, V domains shown)
VH: B1 VH with Q65K
VL: B2 VL with Q56K, E93D
notes: also called Ls303
B12: Ha101L0 (Ha101-SKSC / L0) (antibody, V domains shown)
VH: B1 VH with I33V, Q65K
VL: B2 VL with Q56K
B13: Ha111L0 (Ha111-SKSC / L0) (antibody, V domains shown)
VH: B1 VH with M34L, Q65K
VL: B2 VL with Q56K
B14: H30L17 (H30-M58 / L17) (antibody, V domains shown)
VH: B1 VH with S59D, Q62P, K63Q, G66D, M108L, D109E, Y110T
VL: B2 VL with R24Q, T25A, N28D, L33V, K52Q, L54E, E93D
B15: H42L17 (H42-M58 / L17) (antibody, V domains shown)
VH: B1 VH with I33V, M34L, S59D, Q62P, K63Q, G66D, E74K, M108L, D109E, Y110T
VL: B2 VL with R24Q, T25A, N28D, L33V, K52Q, L54E, E93D
B16: H92L17 (H92-M58 / L17) (antibody, V domains shown)
VH: B1 VH with I33A, S59D, Q62P, K63Q, E74K, M108L, D109E, Y110T
VL: B2 VL with R24Q, T25A, N28D, L33V, K52Q, L54E, E93D
B17: H28L17 (H28-M58 / L17) (antibody, V domains shown)
VH: B1 VH with I33V, M34L, S59D, Q62P, K63Q, G66D, M108L, D109E, Y110T
VL: B2 VL with R24Q, T25A, N28D, L33V, K52Q, L54E, E93D
B18: H34L17 (H34-M58 / L17) (antibody, V domains shown)
VH: B1 VH with I33A, S59D, Q62P, K63Q, G66D, M108L, D109E, Y110T
VL: B2 VL with R24Q, T25A, N28D, L33V, K52Q, L54E, E93D
B19: H57L17 (H57-M58 / L17) (antibody, V domains shown)
VH: B1 VH with S59D, Q62P, K63Q, M108L, D109E, Y110T
VL: B2 VL with R24Q, T25A, N28D, L33V, K52Q, L54E, E93D
B20: H78L17 (H78-M58 / L17) (antibody, V domains shown)
VH: B1 VH with S59D, Q62P, K63Q, E74K, M108L, D109E, Y110T
VL: B2 VL with R24Q, T25A, N28D, L33V, K52Q, L54E, E93D
B21: H97L50 (H97-M58 / L50) (antibody, V domains shown)
VH: B1 VH with K63Q, G66D, M108L, D109E, Y110T
VL: B2 VL with R24Q, T25A, N28D, K52Q, L54E, E93D
B22: H46L17 (H46-M58 / L17) (antibody, V domains shown)
VH: B1 VH with I33A, S59D, Q62P, K63Q, G66D, E74K, M108L, D109E, Y110T
VL: B2 VL with R24Q, T25A, N28D, L33V, K52Q, L54E, E93D
B23: H71L17 (H71-M58 / L17) (antibody, V domains shown)
VH: B1 VH with I33A, S59D, Q62P, K63Q, M108L, D109E, Y110T
VL: B2 VL with R24Q, T25A, N28D, L33V, K52Q, L54E, E93D
B24: H98L50 (H98-M58 / L50) (antibody, V domains shown)
VH: B1 VH with K63Q, G66D, E74K, M108L, D109E, Y110T
VL: B2 VL with R24Q, T25A, N28D, K52Q, L54E, E93D

target: T1, cytoplasmic domain-lacking human NR10 …; assay: FMAT competition on hNR10-expressing CHO cells: antibody titrated against FMAT Blue-labeled hIL-31; FL1 = cell-bound labeled hIL-31; mean±S.D. (n=3)
Description: Antibodies were assessed for the activity of inhibiting the IL-31/NR10 binding by using hNR10-expressing CHO cells as described below. The chimeric NS22 antibody and NS22_H0L0 (H chain, H0-SKSC/SEQ ID NO: 54; L chain, L0/SEQ ID NO: 56) were diluted at an appropriate concentration using Assay buffer (10 mM HEPES, 140 mM NaCl, 2.5 mM CaCl₂, 3 mM MgCl₂, 2% FBS, 0.01% NaN₃, pH7.4), and further eight serial dilutions were prepared at a common dilution ration of 2. The dilutions were added at 40 μl/well to plates (96-Well FMAT Plates, Applied Biosystems). Then, FMAT Blue-labeled hIL-31 was diluted 400 times with Assay buffer, and added at 20 μl/well. Finally, a cell suspension adjusted to 2.5×10⁵ cells/ml using Assay buffer was added at 40 μl/well (final 1×10⁴ cells/well). Two hours after addition of cells, the fluorescence (FL1) was measured using the 8200 Cellular Detection System (Applied Biosystems).
Each variant was tested for the activity of inhibiting the hIL-31/hNR10 binding by using FMAT. The test was carried out according to the method as described in Example 4.

Binder | binding result
B1 | binds
B2 | binds
B3 | binds

target: T2, rhNR10 (recombinant human NR10); assay: SPR, Biacore T100; antibody captured on Protein A, rhNR10 as analyte
Description: (§1) Kinetic analysis of the antigen-antibody reaction was carried out using Biacore T100 (GE Healthcare Biosciences). The antigen-antibody interaction was measured by immobilizing rec-Protein A (hereinafter Protein A) (ZYMED) onto a sensor chip, capturing an antibody on the immobilized Protein A, and then reacting the antigen as an analyte. Various concentrations of rhNR10 were used as the antigen. The kinetic parameters, association rate constant kₐ (1/Ms) and dissociation rate constant kd (1/s), were calculated from the sensorgrams obtained by the measurement. Then, KD (M) was determined based on the rate constants. Each parameter was determined using Biacore T100 Evaluation Software version 1.1 (GE Healthcare Biosciences).
(§2) The running buffer used was HBS-EP+. Each antibody was prepared at 0.25 μg/ml, or prepared so that about 100 RU would bind to Protein A. rhNR10 used as an analyte was prepared at 0, 38.5, 77.0, and 154 nM, or at 0, 19.25, and 77.01 nM using HBS-EP+. In the measurement, first, the antibody solution was captured on Protein A, and an analyte solution was reacted at a flow rate of 20 μL/min for three minutes. Then, the solution was switched to HBS-EP+, and the dissociation phase was measured for five minutes. After measurement of the dissociation phase, the sensor chip was regenerated by washing with 10 mM glycine-HCl (pH 1.5). The obtained sensorgrams were kinetically analyzed using the Biacore-specific data analysis software, Biacore T100 Evaluation Software Version 1.1.

Binder | Kd [nM] | koff [s⁻¹] | kon [M⁻¹ s⁻¹]
B4 | 1.5 | 0.0004 | 260000
B5 | 3 | 0.00096 | 320000
B6 | 3.7 | 0.00052 | 140000
B7 | 2.9 | 0.00052 | 180000
B8 | 1.8 | 0.00044 | 250000
B9 | 1.3 | 0.00048 | 370000
B10 | 2.4 | 0.00053 | 220000
B11 | 2.1 | 0.00046 | 220000
B12 | 1.5 | 0.00031 | 200000
B13 | 2.1 | 0.00056 | 260000

target: T2, rhNR10 (recombinant human NR10); assay: as above; remark: another data set of the same source
Description: as §1, §2

Binder | Kd [nM] | koff [s⁻¹] | kon [M⁻¹ s⁻¹]
B14 | 0.83 | 0.00057 | 680000
B15 | 0.65 | 0.00037 | 570000
B16 | 4.1 | 0.0013 | 310000
B17 | 0.52 | 0.00033 | 640000
B18 | 3.6 | 0.0012 | 340000
B19 | 0.77 | 0.00055 | 710000
B20 | 1.1 | 0.0007 | 610000
B21 | 3.5 | 0.0013 | 360000
B22 | 4.6 | 0.0013 | 290000
B23 | 3.3 | 0.0012 | 370000
B24 | 4.6 | 0.0013 | 290000
